Holding throughout (test): cell-based or functional assay
In assay [1] the target is Fas cell surface receptor (human) (UniProt P25445).
For assay [2], the target named is CD28 ligand B7-1 on mouse lymph node accessory cells (mouse) (UniProt Q00609).
Assay [3] concerns the target CD28 ligand B7-2 on mouse lymph node accessory cells (mouse) (UniProt P42082).
Assay [4] deals with CD3 (TCR/CD3 complex) on Jurkat cells.

Among the data in EP0826043B1 are viability (propidium iodide exclusion) of control (Neo) Jurkat transfectants treated with Fas antibody, viability of activated Thy-1 positive T cells and cell death of Neo Jurkat clones treated with plate bound anti-CD3 (propidium iodide exclusion) values, retold here.

A value given as a limit tells only on which side of the number the result lay.

Chain of UniProt P42082 (P42082 24-309): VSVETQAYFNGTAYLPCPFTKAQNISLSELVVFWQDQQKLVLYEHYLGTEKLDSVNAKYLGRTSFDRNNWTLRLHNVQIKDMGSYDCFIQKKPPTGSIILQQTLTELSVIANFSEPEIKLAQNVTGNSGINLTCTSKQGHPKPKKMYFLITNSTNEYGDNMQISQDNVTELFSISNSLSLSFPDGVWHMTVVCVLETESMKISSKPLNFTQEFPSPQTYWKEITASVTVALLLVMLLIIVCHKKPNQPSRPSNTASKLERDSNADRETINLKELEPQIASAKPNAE
Chain of UniProt Q00609 (Q00609 38-306): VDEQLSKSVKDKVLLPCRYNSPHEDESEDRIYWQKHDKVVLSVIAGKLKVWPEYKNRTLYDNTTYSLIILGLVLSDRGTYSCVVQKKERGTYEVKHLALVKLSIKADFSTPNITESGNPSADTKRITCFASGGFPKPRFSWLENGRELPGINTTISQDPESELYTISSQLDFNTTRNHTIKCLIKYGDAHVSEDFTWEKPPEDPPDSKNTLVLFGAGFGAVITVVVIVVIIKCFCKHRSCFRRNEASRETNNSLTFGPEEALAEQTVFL
Chain of UniProt P25445 (P25445 26-335): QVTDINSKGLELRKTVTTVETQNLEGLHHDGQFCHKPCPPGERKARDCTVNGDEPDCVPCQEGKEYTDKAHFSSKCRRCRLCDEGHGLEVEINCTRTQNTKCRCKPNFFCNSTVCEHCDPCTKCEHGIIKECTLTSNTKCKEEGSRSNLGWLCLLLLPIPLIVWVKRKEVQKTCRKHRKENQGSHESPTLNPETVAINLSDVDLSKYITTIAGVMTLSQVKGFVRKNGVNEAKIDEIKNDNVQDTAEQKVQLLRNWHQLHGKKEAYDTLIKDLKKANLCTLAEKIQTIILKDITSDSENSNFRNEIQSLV

For the substance “CH-11 anti-Fas monoclonal antibody (Panvera)”, in assay [1], the viability (propidium iodide exclusion) of control (Neo) Jurkat transfectants treated with Fas antibody at 10 ng/ml is below 10%.

Take CTLA4Ig (from Repligen) (Fc fusion): the viability of activated Thy-1 positive T cells at 72 hrs in assay [2] and in assay [3] was 20% in each case.

Turning to anti-CD3 (OKT3) (antibody), the cell death of Neo Jurkat clones treated with plate bound anti-CD3 (propidium iodide exclusion) in assay [4] lay within 30 to 60%.
